In test [1] the target is alpha-synuclein fibrils, P37840. As to the kind of experiment: SPR, captured mAb. As to conditions: remark: other sources report otherwise. A general note: In SPR one partner is held on a chip, and binding of the other changes the refractive index at the surface.
The target in test [2] is monomeric alpha-synuclein, P37840. As to the kind of experiment: SPR, captured mAb. As to conditions: remark: other sources report otherwise.

B1: ACI-7088-4301H3-Ab2 (antibody, V domains shown)
VH: EVQLQQSGPELVKPGASVKISCKASGYTFADYFMNWVKQSHGKSLEWIGDINPNNGGTTYNQKFKGKATLTVDKSSNTAYMELRSLTSEDSAVYYCARGRNYAMDYWGQGTSVTVSS
VL: DIVMSQSPSSLAVSAGEKVTMSCKSSQSLLNSRTRKNYLAWYQQKPGQSPKLLIYSASTRESGVPDRFTGSGFGTDFTLTISSVQAEDLAVYYCKQSYDLWTFGGGTKLEIK
B1: in test [1], the Kd (usually a measure of binding affinity in units of concentration) stood at 86.5 nM; the koff (commonly a measure of how fast the partners let go of each other) came out at 0.000898 s⁻¹; the kon (in general, the second-order rate constant of association) was 10400 M⁻¹ s⁻¹. For the same molecule, in test [2], the Kd stood at 119 nM, the koff came out at 0.00329 s⁻¹ and the association rate constant (kon) was 27600 M⁻¹ s⁻¹.

B2: ACI-7079-2507B3-Ab1 (antibody, V domains shown)
VH: EVQLVESGGGLVQPKGSLKVSCAASGFTFKTYAMHWVRQAPGKGLEWVARIRSENSNFAKYYADSVKDRFTISRDDSQSMLYLQMHTLKTEDTAIYYCVRGYNGSSLDYWGQGTTLTVSS
VL: QIVLTQSPAIMSAFPGERVTMTCSASSSVNYMHWYQQKSGTSPKRWIYDTSKLASGVPARFSGGGSGTSYSLTISNMEAEDAATYYCQQWRSNPPTFGGGTKLEIK
Regarding B2, in test [1], the equilibrium dissociation constant (Kd) worked out at 34.9 nM, the koff came to 0.000668 s⁻¹ and the kon was 19100 M⁻¹ s⁻¹. In test [2], this molecule came in with a Kd of 2.6 nM, a koff of 0.000642 s⁻¹ and a kon of 245000 M⁻¹ s⁻¹.

B3: ACI-7067-1106A8-Ab2 (antibody, V domains shown)
VH: EVQLVESGGGLVQPKGSLKLSCAASGFTFNTYAMHWVRQAPGKGLEWVARIRSKGSNYATNYADSVKDRFTISRDDSQSMLYLQMNNLKTEDTAMYYCVRGHGSSYFSYWGQGTLVTVSA
VL: QIVLTQSPAIMSASPGEKVTMTCSASSSVSYMHWYQQKSGTSPKRWIYDTSNLASGVPARFSGSGSGTSYSLTISSMEAEDAATYYCQQWNSHPPTFGAGTKLELK
Take B3: in test [1], the Kd was determined as 25 nM, the koff is 0.00721 s⁻¹ and the kon amounted to 284000 M⁻¹ s⁻¹. In test [2], this molecule had a Kd of 23.2 nM, a koff of 0.005 s⁻¹ and a kon of 218000 M⁻¹ s⁻¹.

B4: ACI-7079-2603C1-Ab3 (antibody, V domains shown)
VH: QVQLQQPGADLVKPGASVKLSCKASGYTFTSYWMQWTKQRPGQGLEWIGEIDPSDSYANYNQKFKGKATLTVDKYSSTAYMQLNSLTSEDSAVYYCALYDGPSYWGQGTLVTVS
VL: ENVLTQSPAIMSASPGEKVTMTCSAGSSVSYMHWFQQKSSTSPKLWIYDTSKLPSGVPGRFSGSGSGNSYSLTISSMEAEDVATYYCFQGSGYPYTFGGGTKLEIK
On to B4, for which, in test [1], the Kd came to 40.3 nM, the koff was 51.7 s⁻¹ and the kon came out at 1.28e+09 M⁻¹ s⁻¹. In test [2], this molecule returned a Kd of 10.9 nM, a koff of 6.06 s⁻¹ and a kon of 5.58e+08 M⁻¹ s⁻¹.

B5: ACI-7079-2602G4-Ab4 (antibody, V domains shown)
VH: EVQLVESGGGLVQPKGSLKLSCAASGFTFKTYAMHWVRQAPGKGLEWVARIRSKGSDYATYYADSVKDRFTISRDDSQSMLYLQMNNLKTEDTAMYFCVRGGADSWFAYWGQGTLVTVST
VL: QIVLTQSPAIMSASPGERITMTCTASSSVSYMHWYQQKSGTSPKRWIYDTSKLASGVPARFSGSGSGASYTLTISSMEAEDAATYYCQQWNRNPPTFGGGTQLAIK
In test [1], B5 gave a Kd of 18.9 nM, a dissociation rate constant (koff) of 0.000234 s⁻¹ and a kon of 12400 M⁻¹ s⁻¹. Moreover, in test [2], the dissociation constant Kd stood at 3.9 nM, the koff was 0.000867 s⁻¹ and the kon stood at 223000 M⁻¹ s⁻¹.

B6: ACI-7079-2605B3-Ab2 (antibody, V domains shown)
VH: EVQLVESGGGLVQPKGSLKLSCAASGFIFKTYAMHWVRQAPGKGLEWVARIRSKGGNYATYFADSVKDRFTISRDDSQNMLYLQVNNLKIEDTAMYFCVRGGNYSWFAYWGQGTLVTVSA
VL: QIVLTQSPAIMSASPGEKVTMTCSASSSVTYMHWYQQKSGTSPKRWIYDTSQLASGVPARFSGSGSGTSHSLTISSMETEDAATYYCQQWTRNPPTFGGGTKLAIK
In test [1], B6 gave a Kd of 17.4 nM, a koff of 0.000294 s⁻¹ and a kon of 16800 M⁻¹ s⁻¹. In test [2], this molecule showed an equilibrium dissociation constant (Kd) of 3.9 nM, a koff of 0.00109 s⁻¹ and a kon of 283000 M⁻¹ s⁻¹.

B7: ACI-7079-2511B3-Ab3 (antibody, V domains shown)
VH: DVQLQESGPGLVKPSQSLSLTCSVTGFSITSYYYWNWIRQFPGNKLEWMAYISYDGSNNYNPSLKNRISITRDTSKNQFFLKLNSVTTEDTATYYCTRGDWDWGQGTLVTVSA
VL: not shown
In test [1], B7 returned a Kd of 29.5 nM, a koff of 0.000312 s⁻¹ and a kon of 10600 M⁻¹ s⁻¹. Also, in test [2], the equilibrium dissociation constant (Kd) worked out at 6.3 nM, the koff stood at 0.000583 s⁻¹ and the kon turned out to be 92800 M⁻¹ s⁻¹.

B8: ACI-7079-2606A6-Ab2 (antibody, V domains shown)
VH: QVQLQQSGPELVKPGASVKISCKASGFAFSSSWMNWVKQRPGKGLEWVGRIFPGDGDTNYDRKFKDKATLTADKSSSTAYMQLSSLTSEDSAVYFCARWTGGYDWFAYWGQGTLVTVSA
VL: DIVLTQSPASLAVSLGQRATISCRASQSVSTSNYNYLHWYQQKPGQPPKLLITYASNLESGVPARFSGSGSGTDFTLNIHPVEEGDTATYYCQHSWEIPLTFGAGTKLELK
Consider B8, for which, in test [1], the dissociation constant Kd came out at 56.2 nM, the koff was determined as 0.000862 s⁻¹ and the kon is 15400 M⁻¹ s⁻¹. In test [2], this molecule displayed a Kd of 4.8 nM, a koff of 0.00412 s⁻¹ and a kon of 860000 M⁻¹ s⁻¹.

B9: ACI-7079-2506F3-Ab1 (antibody, V domains shown)
VH: QVQLQQPGAELVKPGASVKLSCKASGYTFTTYWMQWVKQRPGQGLEWIGEIDPSDSYINYNQKFKGKATLTVDTSSSTAFMQLSSLTSEDSAVYYCARGMMDYWGQGTSVTVSS
VL: DVLMTQTPLSLPVSLGDQASISCRSSQSIVHSNGNTYLEWYLQKPGQSPKLLIYKVSNRFSGVPDRFSGSGSGTDFTLKISRVEAEDLGVYYCFKGSHVPYTFGGGTKLEIK
As for B9, in test [1], the Kd came to 8.8 nM, the koff was 0.000161 s⁻¹ and the kon worked out at 18300 M⁻¹ s⁻¹. Further, in test [2], the dissociation constant Kd came out at 2.4 nM, the koff was 0.00051 s⁻¹ and the kon came out at 210000 M⁻¹ s⁻¹.

B10: ACI-7088-4303A3-Ab1 (antibody, V domains shown)
VH: QVQLQQSGAELVRPGASVTLSCKASGYTFTDYEMHWVKQTPVHGLEWIGVIDPETGGAVQNQKFKGKAILTADNSSSTAYMDLRSLTSEDSAVYNCAMGAALRLAYWGQGTLVTVSS
VL: DVLMTQTPLSLPVSLGDQASISCRSSQSIVHSNGNSYLEWYLQKPGQSPKLLIYKVSNRFSGVPDRFSGSGSGTDFTLKINRVEAEDLGVYYCFQGSHVPFTFGSGTKLEIK
With B10, in test [1], the Kd was found to be 9.4 nM, the off-rate constant (koff) amounted to 0.000606 s⁻¹ and the kon was 64700 M⁻¹ s⁻¹. Also, in test [2], the Kd was 1 nM, the koff came to 0.00107 s⁻¹ and the kon was found to be 1.04e+06 M⁻¹ s⁻¹.

B11: ACI-8033-1G10-Ab1 (antibody, V domains shown)
VH: DVQLQESGPGLVKPSQTVFLTCTVTGISITTGNYRWSWIRQFPGNKLEWIGYIYYSGTITYNPSLTSRTTITRDTPKNQFFLEMNSLTAEDTATYYCARIYYGNAMDYWGQGTSVTVSS
VL: DVVMTQTPLSLPVSLGDQASISCRSSQSLVHSNGNTYLHWYLQKPGQSPKLLIYKVSNRFSGVPDRFSGSGSGTDFTLKISRVEAEDLGVYFCSQSTHVPHTFGGGTKLEIK
In test [1], B11 had a Kd of 3.7 nM, a koff of 6.54e-05 s⁻¹ and a kon of 17700 M⁻¹ s⁻¹.

B12: ACI-7079-2506E2-Ab2 (antibody, V domains shown)
VH: QVQLQQSGPELVRPGASVKISCKASGYAFSNSWMNWVKQRPGKGLEWIGRIFPGDGDTYYDGKFKGKVKLTTDKFSNTAYMQLRSLTSEDSAVYFCARWGGTNDEWFAHWGQGTLVTVSV
VL: DIVLTQSPASLTVSLGQRATISCRASQSVSTSRNSYMHWYQQKPRQPPKLLIKYASNLESGVPARFSGSGSGADFTLNIHPVEEEDTATYYCQHSWDIPLTFGTGTKLELS
As for B12, in test [1], the Kd is 91.9 nM, the koff turned out to be 0.000476 s⁻¹ and the kon was 5190 M⁻¹ s⁻¹. Also, in test [2], the equilibrium dissociation constant (Kd) is 7.6 nM, the koff is 0.000615 s⁻¹ and the kon amounted to 80900 M⁻¹ s⁻¹.

B13: ACI-7067-1102G3-Ab1 (antibody, V domains shown)
VH: EVKLEESGGGLVQPGGSMKLSCAASGFTFSDAWMNWVRQSPEKGLEWVAEIRNKAHNHATYYAESVKGRFTISGDDSKSSVYLQMNNLRAEDTGIYYCTIYSYWGQGTLVTVSA
VL: SIVMTQTPKFLLVSAGDRVTITCKASQSVTKDVAWYQQKPGQSPKLLIYSTSNRYSGVPDRFTGSGYGTDFTFTINTVQTEDLAVYFCQQDYRIPYTFGGGTKLEIK
In test [1], B13 had a Kd of 30.6 nM, a koff of 0.00135 s⁻¹ and a kon of 46000 M⁻¹ s⁻¹. Also, in test [2], the Kd turned out to be 8 nM, the off-rate constant (koff) came to 0.00103 s⁻¹ and the association rate constant (kon) came to 129000 M⁻¹ s⁻¹.

B14: ACI-8033-5A12-Ab1 (antibody, V domains shown)
VH: QVHLKQSGADLVRPGASVKLSCKASGYTFTDYYINWVKQRPGQGLEWIARIYPGSGNTYYNEKFKGRATLSAEKSSTTAYMQLSSLTSEDSAVYFCVVGYYGAWGQGTTLTVSS
VL: DVVMTQTPLSLPVSLGDQASISCRSSQSLVHSNGKTHLHWYLQKPGQSPKLLIYKVSNRFSGVPDRFSGSGSGTDFTLKISRVEAEDLGVYFCSQSTHVPWTFGGGTKLEIK
Take B14: in test [1], the equilibrium dissociation constant (Kd) worked out at 0.1 nM, the koff was 4.37e-06 s⁻¹ and the kon came to 30600 M⁻¹ s⁻¹.

B15: ACI-7088-4303A1-Ab1 (antibody, V domains shown)
VH: EVQLQQSGAELVRPGASVKLSCTASGFNIKDDYMHWVKQRPEQGLEWIGWIDPENGDSEYASKFQGKATMTADTSSNTAYLQLSSLTSEDTAVYYCKTWGTAQALFPYWGQGTLVTVSA
VL: DIVMTQSQKFMSTSVGDRVSITCKASQNVGTSVGWYQQKAGQSPKLLIHSASNRYTGVPDRFTGSGSGTDFTLTINNMQSEDLADYFCQQYRSYPLTFGAGTKLELK
As to B15, in test [1], the Kd was 13.5 nM, the koff was found to be 0.000244 s⁻¹ and the kon is 18100 M⁻¹ s⁻¹. In test [2], this molecule had a Kd of 37.1 nM, a koff of 0.0632 s⁻¹ and a kon of 1.7e+06 M⁻¹ s⁻¹.

B16: ACI-7067-1107G5-Ab2 (antibody, V domains shown)
VH: QVQLQQPGTELVKPGASVKLSCKASGYTFTKYWMHWVKQRPGQGLEWIGNINPNNGDTNYNEKFKSKATLTVDKSSSTAYMQLSSLTSEDSAVYYCAIAMDYWGQGTSVTVSS
VL: DIQMTQSPSSLSAFLGERVSLTCRASQDIGNNLNWFQQEPDGTIKRLIYATSSLDSGVPKRFSGSRSGSEYSLTISSLESEDFVDYYCLQFGSSPLTFGAGTKLELK
As for B16, in test [1], the Kd stood at 16.1 nM, the koff stood at 0.00218 s⁻¹ and the kon was 345000 M⁻¹ s⁻¹. In test [2], this molecule displayed a Kd of 7.2 nM, a dissociation rate constant (koff) of 0.00114 s⁻¹ and a kon of 158000 M⁻¹ s⁻¹.

The values above are taken from patent publication US20250340623A1.
